The text below walks through data of publication PMC9977449, “Discovery of lipid-mediated protein–protein interactions in living cells using metabolic labeling with photoactivatable clickable probes†” (Chemical Science, 2023).

For experiment [1], the target named is T1, FSP1-TST, wild type, from cells under NMT inhibition (UniProt Q9BRQ8 1-373).
T1 construct: FSP1 (ferroptosis suppressor protein 1); same construct as m3; not shown: Twin-Strep-tag, C-terminal, kept
T1 sequence (looked up): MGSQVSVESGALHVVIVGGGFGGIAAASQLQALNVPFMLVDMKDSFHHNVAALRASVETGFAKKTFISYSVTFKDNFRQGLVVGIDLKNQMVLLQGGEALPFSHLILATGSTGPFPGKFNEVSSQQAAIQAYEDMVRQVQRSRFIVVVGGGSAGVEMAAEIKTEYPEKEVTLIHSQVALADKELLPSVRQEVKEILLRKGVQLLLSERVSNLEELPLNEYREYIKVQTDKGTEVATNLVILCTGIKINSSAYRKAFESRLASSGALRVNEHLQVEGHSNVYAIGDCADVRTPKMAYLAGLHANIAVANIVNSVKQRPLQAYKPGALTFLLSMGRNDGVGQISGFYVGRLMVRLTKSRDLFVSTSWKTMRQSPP
Briefly: co-IP; as a2, wild-type FSP1-TST with NMT inhibition of the cells. To be noted: partners not purified.

The target of experiment [2] is T2, FSP1-TST, myristoylation-deficient G2A mutant (UniProt Q9BRQ8 1-373, G2A).
T2 construct: FSP1 (ferroptosis suppressor protein 1) with G2A; also called FSP1 G2A mutant; source: HEK293, transfected, in lysate; not shown: Twin-Strep-tag, C-terminal, kept
T2 sequence (looked up): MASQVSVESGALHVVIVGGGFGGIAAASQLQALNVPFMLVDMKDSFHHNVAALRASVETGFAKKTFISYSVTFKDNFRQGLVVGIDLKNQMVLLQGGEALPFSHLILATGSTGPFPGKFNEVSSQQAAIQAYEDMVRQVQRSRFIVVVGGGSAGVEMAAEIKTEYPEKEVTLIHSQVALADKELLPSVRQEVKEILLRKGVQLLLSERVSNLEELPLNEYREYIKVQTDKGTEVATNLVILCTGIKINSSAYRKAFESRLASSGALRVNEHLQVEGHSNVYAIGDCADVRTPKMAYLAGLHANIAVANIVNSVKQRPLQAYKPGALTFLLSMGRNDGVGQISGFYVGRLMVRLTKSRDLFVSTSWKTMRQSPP
Briefly: co-IP; TST-tagged protein (WT or G2A) transfected in HEK293 cells, captured on Strep-Tactin resin; blot with TRA2B or TOMM40 antibody, signal normalised to the bait's signal. Conditions: partners not purified.

B1: TOMM40, mitochondrial protein that facilitates protein import into mitochondria (natural protein, human (endogenous in HEK293), UniProt O96008 1-361, looked up)
chain: MGNVLAASSPPAGPPPPPAPALVGLPPPPPSPPGFTLPPLGGSLGAGTSTSRSSERTPGAATASASGAAEDGACGCLPNPGTFEECHRKCKELFPIQMEGVKLTVNKGLSNHFQVNHTVALSTIGESNYHFGVTYVGTKQLSPTEAFPVLVGDMDNSGSLNAQVIHQLGPGLRSKMAIQTQQSKFVNWQVDGEYRGSDFTAAVTLGNPDVLVGSGILVAHYLQSITPCLALGGELVYHRRPGEEGTVMSLAGKYTLNNWLATVTLGQAGMHATYYHKASDQLQVGVEFEASTRMQDTSVSFGYQLDLPKANLLFKGSVDSNWIVGATLEKKLPPLPLTLALGAFLNHRKNKFQCGFGLTIG
modifications: myristoylated (the paper: 'is itself also myristoylated')
notes: TOMM40, endogenous in HEK293 cells, detected with a TOMM40 antibody; source: endogenous, HEK293 lysate
In the case of B1, the “co-immunoprecipitated TOMM40, percent of WT” value in experiment [1] is 28 % of WT. Also, in experiment [2], the “co-immunoprecipitated TOMM40, percent of WT FSP1” value is 22 % of WT FSP1.
